Values belong to the binder of their own block, whether it stands above or below them.
Assays:
GST-Src SH3 domain = GST-Src SH3 domain (UniProt P12931 84-145); assay: GST pull-down, lysate in SDS containing RIPA buffer
Method: (§1) In transient expression studies, with epitope tagged DOS constructs in both 293T cell and COS cells, a protein of the expected size is readily detected after cell lysis with buffers containing detergents, such as RIPA.
(§2) After incubating epitope tagged DOS lysates in SDS containing RIPA buffer with beads carrying GST-Crk-N terminal SH3 domain, DOS+SSB and DOS−SSB was “pulled down”. […] No binding to DOS−SSB was observed. […] The proline rich, C terminus of DOS engages with Src and Crk and the loss of Crk binding is seen in human cancer. Furthermore, no binding to SH3 domain of Abl and Crk-C terminus was observed.

[1] = target: T1, DOS+SSB P>L (DOS+SSB with the proline to leucine mutation at amino acid 1718), epitope tagged (human, UniProt Q8N1I0 1-1966); assay: as above
T1 construct: Used as lysate of transfected cells; also called DOS+SSB with proline mutation; DOS with the proline mutation
Method: as §1, §2

[2] = target: T2, DOS+SSB (human DOS protein of 1966 amino acids, with Src SH3 domain binding site), epitope tagged (human, UniProt Q8N1I0 1-1966); assay: pull-down with SH3 domains
T2 construct: Full-length isoform cloned in pcDNA3.1, transiently expressed in 293T or COS cells and used as cell lysate in RIPA buffer; also called DOCK 3; Deleted in Osteosarcoma
Method: as §1, §2

binding result (GST-Src SH3 domain): no binding
B1: DOS-SSB (alternatively spliced human DOS protein of 1928 amino acids, without Src SH3 domain binding site), epitope tagged (other, not shown: small tags and cut ends)
chain: MWIPTEHEKYGVVIASFRGTVPYGLSLEIGDTVQILEKCDGWYRGFALKNPNIKGIFPSSYVHLKNACVKNKGQFEMVIPTEDSVITEMTSTLRDWGTMWKQLYVRNEGDLFHRLWHIMNEILDLRRQVLVGHLTHDRMKDVKRHITARLDWGNEQLGLDLVPRKEYAMVDPEDISITELYRLMEHRHRKKDTPVQASSHHLFVQMKSLMCSNLGEELEVIFSLFDSKENRPISERFFLRLNRNGLPKAPDKPERHCSLFVDLGSSELRKDIYITVHIIRIGRMGAGEKKNACSVQYRRPFGCAVLSIADLLTGETKDDLILKVYMCNTESEWYQIHENIIKKLNARYNLTGSNAGLAVSLQLLHGDIEQIRREYSSVFSHGVSITRKLGFSNIIMPGEMRNDLYITIERGEFEKGGKSVARNVEVTMFIVDSSGQTLKDFISFGSGEPPASEYHSFVLYHNNSPRWSELLKLPIPVDKFRGAHIRFEFRHCSTKEKGEKKLFGFSFVPLMQEDGRTLPDGTHELIVHKCEENTNLQDTTRYLKLPFSKGIFLGNNNQAMKATKESFCITSFLCSTKLTQNGDMLDLLKWRTHPDKITGCLSKLKEIDGSEIVKFLQDTLDTLFGILDENSQKYGSKVFDSLVHIINLLQDSKFHHFKPVMDTYIESHFAGALAYRDLIKVLKWYVDRITEAERQEHIQEVLKAQEYIFKYIVQSRRLFSLATGGQNEEEFRCCIQELLMSVRFFLSQESKGSGALSQSQAVFLSSFPAVYSELLKLFDVREVANLVQDTLGSLPTILHVDDSLQAIKLQCIGKTVESQLYTNPDSRYILLPVVLHHLHIHLQEQKDLIMCARILSNVFCLIKKNSSEKSVLEEIDVIVASLLDILLRTILEITSRPQPSSSAMRFQFQDVTGEFVACLLSLLRQMTDRHYQQLLDSFNTKEELRDFLLQIFTVFRILIRPEMFPKDWTVMRLVANNVIITTVLYLSDALRKNFLNENFDYKIWDSYFYLAVIFINQLCLQLEMFTPSKKKKVLEKYGDMRVTMGCEIFSMWQNLGEHKLHFIPALIGPFLEVTLIPQPGLRNVMIPIFHDMMDWEQRRSGNFKQVEAKLIDKLDSLMSEGKGDETYRELFNSILLKKIERETWRESGVSLIATVTRLMERLLDYRDCMKMGEVDGKKIGCTVSLLNFYKTELNKEEMYIRYIHKLYDLHLKAQNFTEAAYTLLLYDELLEWSDRPLREFLTYPMQTEWQRKEHLHLTIIQNFDRGKCWENGIILCRKIAEQYESYYDYRNLSKMRMMEASLYDKIMDQQRLEPEFFRVGFYGKKFPFFLRNKEFVCRGHDYERLEAFQQRMLNEFPHAIAMQHANQPDETIFQAEAQYLQIYAVTPIPESQEVLQREGVPDNIKSFYKVNHIWKFRYDRPFHKGTKDKENEFKSLWVERTSLYLVQSLPGISRWFEVEKREVVEMSPLENAIEVLENKNQQLKTLISQCQTRQMQNINPLTMCLNGVIDAAVNGGVSRYQEAFFVKEYILSHPEDGEKIARLRELMLEQAQILEFGLAVHEKFVPQDMRPLHKKLVDQFFVMKSSLGIQEFSACMQASPVHFPNGSPRVCRNSAPASVSPDGTRVIPRRSPLSYPAVNRYSSSSLSSQASAEVSNITGQSESSDEVFNMQPSPSTSSLSSTHSASPNVTSSAPSSARASPLLSDKHKHSRENSCLSPRERPCSAIYPTPVEPSQRMLFNHIGDGALPRSDPNLSAPEKASPARHTTSVSPSPAGRSPLKGSVQSFTPSPVEYHSPGLISNSPVLSGSYSSGISSLSRCSTSETSGFENQVNEQSAPLPVPVPVPVPSYGGEEPVRKESKTPPPYSVYERTLRRPVPLPHSLSIPVTSEPPALPPKPLAARSSHLENGARRTDPGPRPRPLPRKVSQL
notes: Used as lysate of transfected cells

binding result [1]: no binding
B2: GST-Crk-N terminal SH3 domain (other, UniProt P46108 132-192, looked up)
chain: EEAEYVRALFDFNGNDEEDLPFKKGDILRIRDKPEEQWWNAEDSEGKRGMIPVPYVEKYRP
notes: domain: N terminal SH3 domain; GST fusion on beads for the pull-down; also called adaptor protein Crk; not shown: glutathione S-transferase (GST) fusion partner

binding result [2]: no binding
B3: SH3 domain of Crk-C terminus (other, UniProt P46108 235-296, looked up)
chain: NGPIYARVIQKRVPNAYDKTALALEVGELVKVTKINVSGQWEGECNGKRGHFPFTHVRLLDQ
notes: domain: SH3 domain of Crk-C terminus
